# B1: CGA esterase: CGA esterase from L. helveticus (Genbank ID: WP_025283955.1, Uniprot ID: U6F2K7), expressed in Escherichia coli; the dimer is the active form (protein, listed as Lactobacillus helveticus)
# chain: MSRITIERDGLTLVGDREEPFGEIYDMAIIMHGFAANRNTDLLRQIADDLRDENVASVRFDFNGHGESDGKFEDMTVCNEIADGKAILDYVRTDPHVRDIFLVGHSQGGVVASMLAGLYPDVVKKVVLLAPAAQLKDDALRSNTQGATYDPNHIPDWPLVGNKLGMKLGGFYLRTAQVLPIYEVSQCFTRPVSVIAGTNDQWDPKYAKKYDEVYENSELHMIPNADHRFSGGYKDMAADLTAQFLKPAF
# Assay: HPLC quantification of CGA in sunflower flour cookies
# Format: biochemical
# Conditions: SFF cookies; 0.09 mg/g flour, pre- and direct treatment
# From the text: Cookie formulations and baking conditions. The cookie dough formulation consisted of baking soda (2.2 g), salt (2.2 g), whole egg (46.8 g), maple syrup (76.3 g), vanilla extract (2.2 g), flour (145.8 g), and butter (87.5 g). CGA esterase treatments in SFF, utilized almond butter instead of SFB. The wet (sunflower or almond butter, maple syrup, eggs, and vanilla extract) and dry (flour, baking soda, and salt) ingredients were mixed separately and subsequently combined and mixed for 75 s with an electric hand mixer. The dough was rolled out and cut to the following dimensions: 6 mm thickness and 40 mm diameter. Cookies were baked for 7 min in a convection oven preheated to 149° C. (300° F.) and allowed to cool at room temperature for 10 min before further analysis.
# Preparation of sunflower flour cookies with CGA esterase. […]
# High-performance liquid chromatography (HPLC) quantification of phenolic content in sunflower cookies. […] The extract was filtered through 0.20 μm syringe filters and analyzed with an Agilent 1260 Infinity II system (Agilent Technologies) equipped with a quaternary pump (G7111B), vial sampler (G7129A), and diode array detector (HS G7117C). […] CGA and caffeic acid concentrations were detected at 320 nm and quantified using a standard curve between 0.00-0.10 mg ml^−1 CGA (y=172287x, R^2=0.994) and caffeic acid (y=248557x, R^2=0.967).
molecule,measurement,value
B1,Effect of enzyme addition on CGA,nearly complete elimination of CGA
